First the molecules themselves.
B1: Natural killer cell receptor 2B4 (Homo sapiens), Q9BZW8 (parent)
chain: MLGQVVTLILLLLLKVYQGKGCQGSADHVVSISGVPLQLQPNSIQTKVDSIAWKKLLPSQNGFHHILKWENGSLPSNTSNDRFSFIVKNLSLLIKAAQQQDSGLYCLEVTSISGKVQTATFQVFVFESLLPDKVEKPRLQGQGKILDRGRCQVALSCLVSRDGNVSYAWYRGSKLIQTAGNLTYLDEEVDINGTHTYTCNVSNPVSWESHTLNLTQDCQNAHQEFRFWPFLVIIVILSALFLGTLACFCVWRRKRKEKQSETSPKEFLTIYEDVKDLKTRRNHEQEQTFPGGGSTIYSMIQSQSSAPTSQEPAYTLYSLIQPSRKSGSRKRNHSPSFNSTIYEVIGKSQPKAQNPARLSRKELENFDVYS

In this assay the parent is B1. The settings on record: with cd48_human CD48, P09326.
Sequence of cd48_human CD48, P09326 (P09326 whole entry): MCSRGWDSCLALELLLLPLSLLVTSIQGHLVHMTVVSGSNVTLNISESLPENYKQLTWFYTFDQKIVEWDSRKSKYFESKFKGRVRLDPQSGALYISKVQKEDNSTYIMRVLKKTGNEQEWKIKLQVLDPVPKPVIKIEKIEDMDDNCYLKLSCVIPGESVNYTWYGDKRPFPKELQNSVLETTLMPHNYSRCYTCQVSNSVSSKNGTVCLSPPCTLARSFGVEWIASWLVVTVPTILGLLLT
For the variant MLGQVVTLILLLLLKVYQGKGCQGSADHVVSISGVPLQLQPNSIQTKVDSIAWKKLLPSQNGFHHILAWANGSLPSNTSNDRFSFIVKNLSLLIKAAQQQDSGLYCLEVTSISGKVQTATFQVFVFESLLPDKVEKPRLQGQGKILDRGRCQVALSCLVSRDGNVSYAWYRGSKLIQTAGNLTYLDEEVDINGTHTYTCNVSNPVSWESHTLNLTQDCQNAHQEFRFWPFLVIIVILSALFLGTLACFCVWRRKRKEKQSETSPKEFLTIYEDVKDLKTRRNHEQEQTFPGGGSTIYSMIQSQSSAPTSQEPAYTLYSLIQPSRKSGSRKRNHSPSFNSTIYEVIGKSQPKAQNPARLSRKELENFDVYS [K68A;E70A], the “effect of a mutation on the interaction” value was “disrupting interaction”. MLGQVVTLILLLLLKVYQGKGCQGSADHVVSISGVPLQLQPNSIQTKVDSIAWKKLLPSQNGFHHILKWANGSLPSNTSNDRFSFIVKNLSLLIKAAQQQDSGLYCLEVTSISGKVQTATFQVFVFESLLPDKVEKPRLQGQGKILDRGRCQVALSCLVSRDGNVSYAWYRGSKLIQTAGNLTYLDEEVDINGTHTYTCNVSNPVSWESHTLNLTQDCQNAHQEFRFWPFLVIIVILSALFLGTLACFCVWRRKRKEKQSETSPKEFLTIYEDVKDLKTRRNHEQEQTFPGGGSTIYSMIQSQSSAPTSQEPAYTLYSLIQPSRKSGSRKRNHSPSFNSTIYEVIGKSQPKAQNPARLSRKELENFDVYS [E70A]: the “effect of a mutation on the interaction” value is listed as “decreasing interaction”.

As to MLGQVVTLILLLLLKVYQGKGCQGSADHVVSISGVPLQLQPNSIQTKVDSIAWKKLLPSQNGFHHILAWENGSLPSNTSNDRFSFIVKNLSLLIKAAQQQDSGLYCLEVTSISGKVQTATFQVFVFESLLPDKVEKPRLQGQGKILDRGRCQVALSCLVSRDGNVSYAWYRGSKLIQTAGNLTYLDEEVDINGTHTYTCNVSNPVSWESHTLNLTQDCQNAHQEFRFWPFLVIIVILSALFLGTLACFCVWRRKRKEKQSETSPKEFLTIYEDVKDLKTRRNHEQEQTFPGGGSTIYSMIQSQSSAPTSQEPAYTLYSLIQPSRKSGSRKRNHSPSFNSTIYEVIGKSQPKAQNPARLSRKELENFDVYS [K68A], the “effect of a mutation on the interaction” value was “decreasing interaction”.

Values taken from IntAct's records for PubMed 16002700.
